B1: Syntaxin-binding protein 2 (Homo sapiens), Q15833 (parent)
chain: MAPSGLKAVVGEKILSGVIRSVKKDGEWKVLIMDHPSMRILSSCCKMSDILAEGITIVEDINKRREPIPSLEAIYLLSPTEKSVQALIKDFQGTPTFTYKAAHIFFTDTCPEPLFSELGRSRLAKVVKTLKEIHLAFLPYEAQVFSLDAPHSTYNLYCPFRAEERTRQLEVLAQQIATLCATLQEYPAIRYRKGPEDTAQLAHAVLAKLNAFKADTPSLGEGPEKTRSQLLIMDRAADPVSPLLHELTFQAMAYDLLDIEQDTYRYETTGLSEAREKAVLLDEDDDLWVELRHMHIADVSKKVTELLRTFCESKRLTTDKANIKDLSQILKKMPQYQKELNKYSTHLHLADDCMKHFKGSVEKLCSVEQDLAMGSDAEGEKIKDSMKLIVPVLLDAAVPAYDKIRVLLLYILLRNGVSEENLAKLIQHANVQAHSSLIRNLEQLGGTVTNPGGSGTSSRLEPRERMEPTYQLSRWTPVIKDVMEDAVEDRLDRNLWPFVSDPAPTASSQAAVSARFGHWHKNKAGIEARAGPRLIVYVMGGVAMSEMRAAYEVTRATEGKWEVLIGSSHILTPTRFLDDLKALDKKLEDIALP
partner: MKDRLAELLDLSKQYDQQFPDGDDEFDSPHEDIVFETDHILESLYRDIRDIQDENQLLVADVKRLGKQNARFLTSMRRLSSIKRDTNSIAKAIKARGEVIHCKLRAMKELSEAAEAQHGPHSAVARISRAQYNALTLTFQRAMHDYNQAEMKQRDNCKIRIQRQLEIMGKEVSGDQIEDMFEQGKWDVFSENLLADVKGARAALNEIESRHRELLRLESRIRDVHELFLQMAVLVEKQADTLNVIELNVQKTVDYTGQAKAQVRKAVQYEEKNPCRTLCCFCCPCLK

Variants of: B1
Conditions: with stx11_human STX11, O75558

effect of a mutation on the interaction	Variant
disrupting interaction strength	P477L
disrupting interaction strength	R292H
disrupting interaction strength	R405W
disrupting interaction strength	R405E
